From patent US20240034757A1 (OXFORD UNIVERSITY INNOVATION, published 2024)
Positions count from the first letter of the chain named.

T1: CCL8_HUMAN (human, UniProt P80075 24-99)
T1 sequence (looked up): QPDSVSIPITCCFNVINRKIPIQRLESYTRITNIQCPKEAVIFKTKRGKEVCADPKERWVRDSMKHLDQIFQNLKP

T2: CCL5_HUMAN (human, UniProt P13501 24-91)
T2 sequence: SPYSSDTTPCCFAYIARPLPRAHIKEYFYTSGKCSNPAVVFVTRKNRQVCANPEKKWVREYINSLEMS

T3: CXCL1_HUMAN (human, UniProt P09341 35-107)
T3 sequence: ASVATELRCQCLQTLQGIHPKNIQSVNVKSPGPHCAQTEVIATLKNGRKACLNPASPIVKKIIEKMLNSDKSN

T4: CXCL2_HUMAN (human, UniProt P19875 35-107)
T4 sequence: T3 sequence with S2P, V3L, P20L, N27K, R48Q, I58M, N68K, S69N, D70G

T5: CXCL6_HUMAN (human, UniProt P80162 38-114)
T5 sequence: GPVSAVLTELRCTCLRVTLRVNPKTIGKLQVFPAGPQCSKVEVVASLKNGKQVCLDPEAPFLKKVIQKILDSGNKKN

T6: CXCL8_HUMAN (human, UniProt P10145 28-99)
T6 sequence: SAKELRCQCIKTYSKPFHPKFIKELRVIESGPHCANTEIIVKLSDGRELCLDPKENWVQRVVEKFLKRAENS

T7: CXCL3_HUMAN (human, UniProt P19876 35-107)
T7 sequence: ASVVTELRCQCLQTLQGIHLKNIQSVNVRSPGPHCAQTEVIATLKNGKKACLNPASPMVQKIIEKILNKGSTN

T8: CXCL5_HUMAN (human, UniProt P42830 41-114)
T8 sequence: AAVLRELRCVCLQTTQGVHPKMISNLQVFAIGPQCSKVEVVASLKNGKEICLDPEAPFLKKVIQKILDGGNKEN

T9: CXCL9_HUMAN (human, UniProt Q07325 23-125)
T9 sequence: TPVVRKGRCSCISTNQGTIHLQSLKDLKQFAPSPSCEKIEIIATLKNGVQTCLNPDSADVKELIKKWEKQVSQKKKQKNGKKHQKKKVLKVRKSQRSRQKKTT

T10: P1096_IXORI (Ixodes ricinus, UniProt A0A0K8RKE4 24-114)
T10 sequence: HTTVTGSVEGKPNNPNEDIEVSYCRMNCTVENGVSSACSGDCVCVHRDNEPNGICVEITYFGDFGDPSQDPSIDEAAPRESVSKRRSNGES

T11: P1095_IXORI (Ixodes ricinus, UniProt A0A0K8RCE3 24-112)
T11 sequence: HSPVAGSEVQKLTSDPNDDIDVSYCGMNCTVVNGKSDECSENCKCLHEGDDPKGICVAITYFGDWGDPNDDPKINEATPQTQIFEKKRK

T12: P1134_IXORI (Ixodes ricinus, UniProt A0A0K8RAI0 32-135)
T12 sequence: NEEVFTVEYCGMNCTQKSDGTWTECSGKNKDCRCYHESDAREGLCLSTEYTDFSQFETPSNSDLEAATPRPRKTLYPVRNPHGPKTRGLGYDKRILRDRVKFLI

T13: CXCL10_HUMAN (human, UniProt P02778 22-98)
T13 sequence: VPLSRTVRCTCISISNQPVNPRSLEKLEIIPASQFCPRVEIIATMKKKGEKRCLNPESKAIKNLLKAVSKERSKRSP

T14: CXCL14_HUMAN (human, UniProt O95715 35-111)
T14 sequence: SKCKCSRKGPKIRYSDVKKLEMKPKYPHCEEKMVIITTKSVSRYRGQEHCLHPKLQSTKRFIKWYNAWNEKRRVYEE

T15: CXCL11_HUMAN (human, UniProt O14625 22-94)
T15 sequence: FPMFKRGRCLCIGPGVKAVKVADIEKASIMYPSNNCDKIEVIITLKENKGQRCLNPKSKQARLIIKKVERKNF

T16: CXCL7_HUMAN (human, UniProt P02775 59-128)
T16 sequence: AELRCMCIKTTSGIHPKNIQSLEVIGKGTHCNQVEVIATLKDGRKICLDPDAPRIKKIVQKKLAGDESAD

T17: CXCL4_HUMAN (human, UniProt P02776 32-101)
T17 sequence: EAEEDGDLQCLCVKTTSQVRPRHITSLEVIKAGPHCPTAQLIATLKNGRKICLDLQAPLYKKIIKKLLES

T18: CCL25_HUMAN (human, UniProt O15444 24-150)
T18 sequence: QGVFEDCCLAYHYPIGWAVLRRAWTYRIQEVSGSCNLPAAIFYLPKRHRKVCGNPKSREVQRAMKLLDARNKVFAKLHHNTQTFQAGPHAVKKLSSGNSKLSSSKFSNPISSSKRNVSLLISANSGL

B1: P467_RHIPU (other)
chain: AEKSLDSDSSGEDYELWTQGCPFLVAENRTGFGTTVSCQHNCNGAIEKVPEGEPCYTIGEDGLGRMKLNLPYNCSLGECSGGVCVPNGRSDVCFKRTWEENNKAMA
B2: P1156_IXORI (other)
chain: ADDDNELFTVQYCGMNCTKDEGGTWTGCTGKKEGCKCYHESGKNYGLCLSTEYTDFSQYGNPSDSEIEAAKPKRSDTLSH
B3: CXCL13_HUMAN (ligand)
chain: VLEVYYTSLRCRCVQESSVFIPRRFIDRIQILPRGNGCPRKEIIVWKKNKSIVCVDPQAEWIQRMMEVLRKRSSSTLPVPVFKRKIP
B4: P1086_IXORI (other)
chain: GSKGQRASQVSETSITAEFCDTSCTQGTDKTWSGCSGDCFCVHVGNDTEGRCMRWDGDYPSAEEEE
B5: EVA3_RHISA (other)
single chain: LVSTIESRTSGDGADNFDVVSCNKNCTSGQNECPEGCFCGLLGQNKKGHCYKIIGNLSGEPPVVRR
notes: also called Evasin-3; evasin 3
B6: P1146_IXORI (other)
chain: GPDTKGDEESDENELFTVEYCGTNCTQLENGSWTPCSGNNGNCRCFHESDKTVGLCLSTEYTDFSEYPDPNSSEIIAAAPLPRERLIQ

Tests used:
CCL7_HUMAN = CCL7_HUMAN (human, UniProt P80098 24-99); assay: cell-based or functional assay
CCL2_HUMAN = CCL2_HUMAN (human, UniProt P13500 24-99); assay: cell-based or functional assay
CCL8_HUMAN = biological target: T1, CCL8_HUMAN; assay: cell-based or functional assay
CCL5_HUMAN = biological target: T2, CCL5_HUMAN; assay: cell-based or functional assay
CXCL1_HUMAN = biological target: T3, CXCL1_HUMAN; assay: BLI
CXCL2_HUMAN [1] = biological target: T4, CXCL2_HUMAN; assay: BLI
CXCL6_HUMAN [2] = biological target: T5, CXCL6_HUMAN; assay: BLI
CXCL8_HUMAN [3] = biological target: T6, CXCL8_HUMAN; assay: BLI
CXCL3_HUMAN = biological target: T7, CXCL3_HUMAN; assay: BLI
CXCL5_HUMAN [4] = biological target: T8, CXCL5_HUMAN; assay: BLI
CXCL12_HUMAN = CXCL12_HUMAN (human, UniProt P48061 22-89); assay: BLI
CXCL13_HUMAN = biological target: B3; assay: BLI
CXCL9_HUMAN = biological target: T9, CXCL9_HUMAN; assay: BLI
P1096_IXORI = biological target: T10, P1096_IXORI; assay: BLI
P1080_IXORI = P1080_IXORI (Ixodes ricinus, UniProt A0A090XBL6 20-118); assay: BLI
P1095_IXORI = biological target: T11, P1095_IXORI; assay: BLI
P1134_IXORI = biological target: T12, P1134_IXORI; assay: BLI
CXCL10_HUMAN [5] = biological target: T13, CXCL10_HUMAN; assay: yeast surface display FACS re-test; further: test concentration or dose not given here
CXCL14_HUMAN = biological target: T14, CXCL14_HUMAN; assay: BLI
CXCL11_HUMAN = biological target: T15, CXCL11_HUMAN; assay: BLI
CXCL2_HUMAN [6] = biological target: T4, CXCL2_HUMAN; assay: BLI [Cont.]
CXCL7_HUMAN = biological target: T16, CXCL7_HUMAN; assay: BLI [Cont.]
CXCL4_HUMAN = biological target: T17, CXCL4_HUMAN; assay: BLI [Cont.]
CXCL8_HUMAN [7] = biological target: T6, CXCL8_HUMAN; assay: BLI [Cont.]
CXCL5_HUMAN [8] = biological target: T8, CXCL5_HUMAN; assay: BLI [Cont.]
CXCL10_HUMAN [9] = biological target: T13, CXCL10_HUMAN; assay: BLI
CXCL6_HUMAN [10] = biological target: T5, CXCL6_HUMAN; assay: BLI [Cont.]
CCL25_HUMAN = biological target: T18, CCL25_HUMAN; assay: yeast surface display FACS

Chain of CXCL12_HUMAN (P48061 22-89 limits assumed): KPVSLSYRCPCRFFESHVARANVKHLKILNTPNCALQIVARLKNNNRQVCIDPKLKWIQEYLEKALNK
Chain of CCL2_HUMAN (P13500 24-99 limits assumed): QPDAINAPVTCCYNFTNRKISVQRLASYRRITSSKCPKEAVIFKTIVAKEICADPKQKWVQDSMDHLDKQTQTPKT
Chain of P1080_IXORI (A0A090XBL6 20-118): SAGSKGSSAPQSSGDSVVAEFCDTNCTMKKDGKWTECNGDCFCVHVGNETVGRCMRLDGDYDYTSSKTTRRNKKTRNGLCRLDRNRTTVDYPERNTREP
Chain of CCL7_HUMAN (P80098 24-99 limits assumed): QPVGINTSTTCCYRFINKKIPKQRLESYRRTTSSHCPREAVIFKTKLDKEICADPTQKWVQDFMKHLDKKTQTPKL

B1
IC50, THP1 cell migration (CCL7_HUMAN): 11.1 nM | IC50, THP1 cell migration (CCL2_HUMAN): 3.26 nM | IC50, THP1 cell migration (CCL8_HUMAN): 1.92 nM | IC50, THP1 cell migration (CCL5_HUMAN): 8.74 nM

B2
RT (CXCL1_HUMAN): 35.7 min | RT (CXCL2_HUMAN [1]): 4.2 min | RT (CXCL6_HUMAN [2]): 3.23 min | RT (CXCL8_HUMAN [3]): 46.7 min | RT (CXCL3_HUMAN): 5.76 min | RT (CXCL5_HUMAN [4]): 5.33 min | binding result (CXCL12_HUMAN): no binding (tested: 300 nM) | binding result (CXCL13_HUMAN): no binding (tested: 300 nM) | binding result (CXCL9_HUMAN): no binding (tested: 300 nM)

B3
binding result (P1096_IXORI): no binding (tested: 300 nM) | Kd (P1080_IXORI): 1110 nM | binding result (P1095_IXORI): no binding (tested: 300 nM) | binding result (P1134_IXORI): no binding (tested: 300 nM)

B4
% cells over threshold fluorescence (CXCL10_HUMAN [5]): 63% | Kd (CXCL12_HUMAN): 142 nM | binding result (CXCL14_HUMAN): no binding (tested: 300 nM) | binding result (CXCL11_HUMAN): no binding (tested: 300 nM) | Kd (CXCL2_HUMAN [6]): 34 nM | binding result (CXCL7_HUMAN): no binding (tested: 300 nM) | binding result (CXCL4_HUMAN): no binding (tested: 300 nM) | binding result (CXCL8_HUMAN [7]): no binding (tested: 300 nM) | Kd (CXCL5_HUMAN [8]): 26 nM

B5
binding result (CXCL12_HUMAN): no binding (tested: 300 nM) | binding result (CXCL13_HUMAN): no binding (tested: 300 nM) | binding result (CXCL14_HUMAN): no binding (tested: 300 nM) | binding result (CXCL9_HUMAN): no binding (tested: 300 nM) | binding result (CXCL11_HUMAN): no binding (tested: 300 nM) | binding result (CXCL10_HUMAN [9]): no binding (tested: 300 nM) | Kd (CXCL2_HUMAN [6]): 7.49 nM | binding result (CXCL7_HUMAN): no binding (tested: 300 nM) | Kd (CXCL6_HUMAN [10]): 1.03 nM | binding result (CXCL4_HUMAN): no binding (tested: 300 nM) | Kd (CXCL5_HUMAN [8]): 24.9 nM

B6
binding result (CCL25_HUMAN): binds
